We go through 13 molecules from patent publication US20150266963A1 (ARGEN X B V, published 2015).

Changes are numbered by the printed parent chain.

Assay [1] deals with T1, recombinant human CD70 (Flag-TNC-CD70) (human, UniProt P32970 39-193).
T1 construct: extracellular domain; Captured by anti-Flag mAb in ELISA; as 'recombinant human CD70' immobilised on Biacore CM5 chips; TNC is for trimerisation; also called recombinant CD70; human recombinant CD70; not shown: Flag tag and TNC trimerisation domain
T1 sequence (looked up): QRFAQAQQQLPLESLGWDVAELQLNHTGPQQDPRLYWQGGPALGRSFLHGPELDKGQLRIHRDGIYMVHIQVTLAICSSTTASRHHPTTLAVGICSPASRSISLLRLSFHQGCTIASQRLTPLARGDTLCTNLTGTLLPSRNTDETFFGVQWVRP
Briefly: Biacore; CD70 coated CM5 chip; Fab in periplasmic fraction. As to the method: Phage eluted from rounds 3, 4 and 5 of selection were transfected into TG1 and plated clonally; individual clones were picked randomly for further analysis. Periplasmic fractions containing Fabs were prepared from IPTG induced small scale cultures the off rate of each Fab was determined using a CD70 coated CM5 chip in a Biacore binding assay. Clones with Fab having off rates similar to that of 27B3 were sequenced.

In assay [2] the target is T1, recombinant human CD70 (Flag-TNC-CD70). Briefly: Biacore; recombinant human CD70 on CM5 chip; Fab injected. As to the method:
Off-rates of the purified llama-derived anti-CD70 blocking Fabs were determined using the Biacore. Recombinant human CD70 was immobilized on a CM5 Biacore chip. The immobilization was performed in accordance with a method provided by Biacore and by using the NHS/EDC kit (Biacore AB): after activation of the chip, a solution of 50 μg/ml of recombinant CD70 in 10 mM acetate buffer with pH of 5 was prepared and 1 μl of this solution (50ng) was injected resulting in a surface density of approximately 1000 RU.
Fabs for the CD70 mAbs ARGX-110, MDX2H5 and SGN70 were prepared by […] digestion (SGN70 and MDX69A7 are described elsewhere herein, MDX2H5, also referred to as MDX1411, is described in WO2008/074004 FIGS. 1A and 1B). Fabs, at a concentration of approximately 100-400 μg/ml, were diluted 6-fold in hepes-buffered saline (0.1M Hepes, 1.5M NaCl, 30 mM EDTA, 0.5% v/v surfactant P20). They were injected (30 μl) and passed through the flow cells at a flow rate of 30 μl/min. After binding of the Fab to CD70, the off-rate was monitored for a period of 10 minutes. After the dissociation, the flow cell surfaces were regenerated by injecting 5 μl of 10 mM NaOH. Sometimes multiple injections of NaOH were needed to regenerate the surfaces depending on the affinity of the Fabs. Off-rate analysis was done by applying the BIAevaluation software. First, the sensogram of the blank runs were subtracted from those obtained with the coated flow cell. […] Moreover, the off-rate of CD27 for CD70 was determined as well.

B1: 41D12 Fab (Fab, V domains shown)
VH: EVQLVESGGGLVQPGGSLRLSCAASGFTFSVYYMNWVRQAPGKGLEWVSDINNEGGTTYYADSVKGRFTISRDNSKNSLYLQMNSLRAEDTAVYYCARDAGYSNHVPIFDSWGQGTLVTVSS
VL: QAVVTQEPSLTVSPGGTVTLTCGLKSGSVTSDNFPTWYQQTPGQAPRLLIYNTNTRHSGVPDRFSGSILGNKAALTITGAQADDEAEYFCALFISNPSVEFGGGTQLTVLG
notes: Germlined 27B3 Fab, periplasmic fraction
B1: the koff in assay [1] was determined as 0.00023 s⁻¹.

B2: 33D8 Fab (Fab, V domains shown)
VH: B1 VH with S75A, S78T, Y80T, R87K, A88P, V93L, A97V, L117Q, T119I, S121A
VL: QSALTQPSTVSVSLGQTARITCRGDSLERYGTNWYQQKPGQAPVLVIYDDDSRPSGIPERFSGSSSGATAALTISGAQAEDEGDYYCQSADSSGNAVFGGGTHLTVLG
notes: Llama-derived Fab
As for B2, the off-rate (koff) in assay [2] was 0.00045 s⁻¹.

B3: 24E3 Fab (Fab, V domains shown)
VH: B1 VH with S75A, S78T, Y80T, R87K, A88P, V93L, A97V, L117Q, T119I, S121A
VL: QAVVTQEPSLSVSPGGTVTLTCGLTSGSVTSDNFPVWYQQTPGQAPRLLIYTINSRHSGVPSRFSGSITGNKAILTITGAQPEDEADYYCALYLENFANEFGGGTRLTVLG
notes: Llama-derived Fab
Regarding B3, the koff in assay [2] amounted to 8e-05 s⁻¹.

B4: 36D6 Fab (Fab, V domains shown)
VH: B1 VH with S75A, S78T, R87K, A88P, V93L, A97V, L117T
VL: B1 VL with A2T, D32T, T55S, A86S, E87D
notes: as for B1
B4: in assay [1], the koff amounted to 0.00014 s⁻¹.

B5: 35G1 Fab (Fab, V domains shown)
VH: B1 VH with L18V, S75A, S78T, R87K, A88P, S121A
VL: B1 VL with A2T, L10F, T11S, T55S, A86S, E87D
notes: as for B1
For the molecule B5, the off-rate (koff) in assay [1] is 0.00023 s⁻¹.

B6: 36A9 Fab (Fab, V domains shown)
VH: B1 VH with S78T, Y80T, R87K, A88P, A97V, L117Q, T119I
VL: B1 VL with A2T, L10F, T11S, A86S, E87D
notes: as for B1
Consider B6, for which the koff in assay [1] is 0.00013 s⁻¹.

B7: 35G3 Fab (Fab, V domains shown)
VH: B1 VH with Y80T, R87K, A88P
VL: B1 VL with L10F, T11S, T55S, T78R, F89Y
notes: as for B1
On to B7, for which the koff in assay [1] came to 0.00017 s⁻¹.

B8: 35G2 Fab (Fab, V domains shown)
VH: B1 VH with S75A, S78T, R87K, A88P
VL: B1 VL with A2T, L10F, T11S, D32T, T55S, E87D
notes: as for B1
On to B8, for which the koff in assay [1] was determined as 0.00017 s⁻¹.

B9: 8B12 Fab (Fab, V domains shown)
VH: EVQLVESGGGLVQPGGSLRLSCAASGFTFSVYYMNWVRQAPGKGLEWVSDINNEGDTTYYADSVKGRFTISRDNAKNTLTLQMDSLKPEDTALYYCVRDAGYSNHVPIFDSWGQGTQVIVAS
VL: QTVVTQEPSLSVSPGGTVTLTCGLSSGSVTSSNYPGWYQQTPGQAPRVLIYNTNNRHSGVPSRYSGSISGNKAALTITGAEPEDEADYYCNLHLGSYTPMFGGGTKLTVLG
notes: Llama-derived Fab
Regarding B9, in assay [2], the dissociation rate constant (koff) was found to be 0.00036 s⁻¹.

B10: 45B12 Fab (Fab, V domains shown)
VH: B9 VH with V31A, V48I, D56Y, T57E, L93R, P107Q
VL: QAVLTQPSSVSVSLGQTAKITCQGGNLGLYGANWYQQNPGRAPILLIYGDNYRPLGIPERFTISKSGGTATLTIDGAQAEDESDYYCQSADYSGNSVFGGGTKLTVLG
notes: Llama-derived Fab
B10: in assay [2], the koff came out at 0.00021 s⁻¹.

B11: 45D9 Fab (Fab, V domains shown)
VH: B9 VH with V31A, V48I, D56Y, T57E, L93R, P107Q
VL: B10 VL with G28W, Y52Q
notes: Llama-derived Fab
In the case of B11, the koff in assay [2] is 0.00021 s⁻¹.

B12: 45F8 Fab (Fab, V domains shown)
VH: B9 VH with V31A, V48I, D56Y, T57E, L93R, P107Q
VL: B10 VL with K19N, I47F, R53M, D81N, A90S, S93P
notes: Llama-derived Fab
Turning to B12, the koff in assay [2] is 0.0002 s⁻¹.

B13: 59D10 Fab (Fab, V domains shown)
VH: EVQLVESGGGLVQPGGSLRLSCAASELSFSISEMTWVRQAPGKGLEWVSGISGVTGGSSTSYADSVKGRFTISRDNDKNTLYLQMNSLIPEDTAVYYCATTSGTYYFIPEYEYWGQGTQVTVSS
VL: QSVLTQPPSVSGSPGKTVTISCAGTSSDVGYGYYVSWYQQFPGMAPKLLIYDVNKRASGIADRFSGSKAGNTASLTISGLQSEDEADYYCASYRSSANAVFGGGTHLTVLG
notes: Llama-derived Fab
For the molecule B13, in assay [2], the off-rate constant (koff) was found to be 0.00139 s⁻¹.
